From the supplement of paper PMC7877785
± gives the uncertainty stated by the source.

Assay: self-splicing fitness, log relative to wild type (ln ratio); higher = more splicing; Tetrahymena group I intron in knt gene, E. coli kanamycin selection, DiMSum; sequences stand for … in CUCUCU…GGAGGGAAAAGUUAUCAGGCAUGCACCUGGUAGCUAGUCUUUAAACCAAUAGAUUGCAUCGGUUUAAAAGGCAAGACCGUCAAAUUGCGGGAAAGGGGUCAACAGCCGUUCAGUACCAAGUCUCAGGGGAAACUUUGAGAUGGCCUUGCAAAGGGUAUGGUAAUAAGCUGACGGACAUGGUCCUAACCACGCAGCCAAGUCCUAAGUCAACAGAUCUUCUGUUGAUAUGGAUGCAGUUCACAGACUAAAUGUCGGUCGGGGAAGAUGUAUUCUUCUCAUAAGAUAUAGUCGGACCUCUCCUUAAUGGGAGCUAGCGGAUGAAGUGAUGCAACACUGGAGCCGCUGGGAACUAAUUUGUAUGCGAAAGUAUAUUGAUUAGUUUUGGAGUACUCGUGGUCG
Outline: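 Six replicate transformations of E. coli BL21(DE3) with a pET-22b(+) library were grown overnight at 37°C or 30°C. The library randomised all eight P1ex-region intron nucleotides, the intron lying in the knt kanamycin-resistance gene, and plates were LB agar with or without 25 μg/mL kanamycin plus 100 μg/mL carbenicillin, 50 μM IPTG and 0.2% rhamnose. Pooled colonies were amplicon-sequenced on an Illumina HiSeq 2500, and fitness is the DiMSum error-weighted combination of wild-type-normalised replicate fold changes, kanamycin versus none.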

UGAUAGCAAUAUUACGAUGC
self-splicing fitness (ln) (30 °C): -3.93 ± 0.26
self-splicing fitness (ln) (37 °C): -1.95 ± 0.17

ACUAAGCAAUAUUACGGCAC
self-splicing fitness (ln) (30 °C): -0.673 ± 0.096
self-splicing fitness (ln) (37 °C): -1.92 ± 0.095

GCACAGCAAUAUUACGUCUA
self-splicing fitness (ln) (30 °C): -0.8 ± 0.06
self-splicing fitness (ln) (37 °C): -0.367 ± 0.063

GGUCAGCAAUAUUACGUGCU
self-splicing fitness (ln) (30 °C): -1.5 ± 0.052
self-splicing fitness (ln) (37 °C): -0.199 ± 0.067

UAGCAGCAAUAUUACGCGAU
self-splicing fitness (ln) (30 °C): -2.94 ± 0.2
self-splicing fitness (ln) (37 °C): -3.07 ± 0.35

AACGAGCAAUAUUACGCAGA
self-splicing fitness (ln) (30 °C): -4.04 ± 0.3
self-splicing fitness (ln) (37 °C): -2.18 ± 0.23

GCCUAGCAAUAUUACGCAGA
self-splicing fitness (ln) (30 °C): -3.96 ± 0.33
self-splicing fitness (ln) (37 °C): -2.06 ± 0.23

GUGUAGCAAUAUUACGCCCA
self-splicing fitness (ln) (37 °C): -0.199 ± 0.35

CCUCAGCAAUAUUACGGCGG
self-splicing fitness (ln) (30 °C): -3.33 ± 0.15
self-splicing fitness (ln) (37 °C): -3.35 ± 0.35

UUUGAGCAAUAUUACGGGGC
self-splicing fitness (ln) (37 °C): -2.07 ± 0.45

UUCGAGCAAUAUUACGGGGU
self-splicing fitness (ln) (30 °C): -2.88 ± 0.35

CCGCAGCAAUAUUACGCCGG
self-splicing fitness (ln) (30 °C): -3.15 ± 0.38
self-splicing fitness (ln) (37 °C): -3 ± 0.43

UUUGAGCAAUAUUACGCGCA
self-splicing fitness (ln) (37 °C): -1.65 ± 0.48

GUAUAGCAAUAUUACGCAUG
self-splicing fitness (ln) (30 °C): -3.35 ± 0.24
self-splicing fitness (ln) (37 °C): -1.01 ± 0.17

UAGGAGCAAUAUUACGUCUA
self-splicing fitness (ln) (30 °C): -0.313 ± 0.11
self-splicing fitness (ln) (37 °C): 0.198 ± 0.13

AUCGAGCAAUAUUACGCAGA
self-splicing fitness (ln) (30 °C): -3.09 ± 0.18
self-splicing fitness (ln) (37 °C): -2.46 ± 0.16

AUGGAGCAAUAUUACGGGAG
self-splicing fitness (ln) (30 °C): -2.75 ± 0.18
self-splicing fitness (ln) (37 °C): -2.82 ± 0.31

UCUCAGCAAUAUUACGGCCU
self-splicing fitness (ln) (37 °C): -1.67 ± 0.34

UUUGAGCAAUAUUACGGGUU
self-splicing fitness (ln) (30 °C): -3.23 ± 0.34
self-splicing fitness (ln) (37 °C): -2.91 ± 0.48

CGUCAGCAAUAUUACGCAAU
self-splicing fitness (ln) (30 °C): -1.37 ± 0.1
self-splicing fitness (ln) (37 °C): -2.12 ± 0.24

CGAAAGCAAUAUUACGCCAU
self-splicing fitness (ln) (30 °C): -3.31 ± 0.45
self-splicing fitness (ln) (37 °C): -2.78 ± 0.43

AAUGAGCAAUAUUACGUCAC
self-splicing fitness (ln) (30 °C): -2.93 ± 0.41
self-splicing fitness (ln) (37 °C): -1.92 ± 0.29

CGGCAGCAAUAUUACGAUCC
self-splicing fitness (ln) (30 °C): -2 ± 0.13
self-splicing fitness (ln) (37 °C): -1.03 ± 0.21

AUAGAGCAAUAUUACGGGUC
self-splicing fitness (ln) (30 °C): -3.75 ± 0.36
self-splicing fitness (ln) (37 °C): -2.58 ± 0.24

GCUAAGCAAUAUUACGAUGG
self-splicing fitness (ln) (30 °C): -0.808 ± 0.072
self-splicing fitness (ln) (37 °C): -0.4 ± 0.098

GCAGAGCAAUAUUACGCCGG
self-splicing fitness (ln) (30 °C): -2.85 ± 0.45
self-splicing fitness (ln) (37 °C): -0.641 ± 0.35

UGUCAGCAAUAUUACGAGAU
self-splicing fitness (ln) (30 °C): -3.11 ± 0.22
self-splicing fitness (ln) (37 °C): -2.56 ± 0.27

UACAAGCAAUAUUACGUGCA
self-splicing fitness (ln) (30 °C): -0.352 ± 0.083
self-splicing fitness (ln) (37 °C): -0.366 ± 0.1

UAUGAGCAAUAUUACGUUGG
self-splicing fitness (ln) (30 °C): -4.07 ± 0.3
self-splicing fitness (ln) (37 °C): -2.24 ± 0.22

CGUAAGCAAUAUUACGCGGU
self-splicing fitness (ln) (30 °C): -1.99 ± 0.23
self-splicing fitness (ln) (37 °C): -1.69 ± 0.38

GUGCAGCAAUAUUACGUCAA
self-splicing fitness (ln) (30 °C): -1.6 ± 0.15
self-splicing fitness (ln) (37 °C): -0.634 ± 0.12

CCCGAGCAAUAUUACGUUAU
self-splicing fitness (ln) (30 °C): -3.87 ± 0.21
self-splicing fitness (ln) (37 °C): -2.62 ± 0.19

AUCCAGCAAUAUUACGUUGA
self-splicing fitness (ln) (30 °C): -1.6 ± 0.077
self-splicing fitness (ln) (37 °C): -0.866 ± 0.087

AGUAAGCAAUAUUACGCGUG
self-splicing fitness (ln) (30 °C): -3.44 ± 0.2
self-splicing fitness (ln) (37 °C): -1.46 ± 0.16

AAGCAGCAAUAUUACGGAAG
self-splicing fitness (ln) (30 °C): -3.51 ± 0.15
self-splicing fitness (ln) (37 °C): -1.35 ± 0.14

UACUAGCAAUAUUACGCCCA
self-splicing fitness (ln) (30 °C): -0.901 ± 0.21
self-splicing fitness (ln) (37 °C): 0.802 ± 0.33

AUUUAGCAAUAUUACGCGAG
self-splicing fitness (ln) (30 °C): -2.19 ± 0.22
self-splicing fitness (ln) (37 °C): -0.658 ± 0.2

UUCUAGCAAUAUUACGCGUU
self-splicing fitness (ln) (30 °C): -2.47 ± 0.15
self-splicing fitness (ln) (37 °C): -1.9 ± 0.13

AUUAAGCAAUAUUACGUUCG
self-splicing fitness (ln) (30 °C): -0.91 ± 0.1
self-splicing fitness (ln) (37 °C): -0.85 ± 0.14

GAGGAGCAAUAUUACGAGGC
self-splicing fitness (ln) (30 °C): -3.47 ± 0.47

UGAAAGCAAUAUUACGUAUA
self-splicing fitness (ln) (30 °C): -1.56 ± 0.13
self-splicing fitness (ln) (37 °C): -1.28 ± 0.12

AGCGAGCAAUAUUACGGUAG
self-splicing fitness (ln) (37 °C): -1.73 ± 0.22

AUGCAGCAAUAUUACGGCAU
self-splicing fitness (ln) (30 °C): -3.9 ± 0.19
self-splicing fitness (ln) (37 °C): -2.61 ± 0.15

CCGGAGCAAUAUUACGCUCA
self-splicing fitness (ln) (30 °C): -3.12 ± 0.3
self-splicing fitness (ln) (37 °C): -2.71 ± 0.41

ACCCAGCAAUAUUACGUACC
self-splicing fitness (ln) (30 °C): -1.85 ± 0.12
self-splicing fitness (ln) (37 °C): -1.63 ± 0.15

CUGUAGCAAUAUUACGGUCU
self-splicing fitness (ln) (30 °C): -3.53 ± 0.14
self-splicing fitness (ln) (37 °C): -2.96 ± 0.21

UUGGAGCAAUAUUACGUCAA
self-splicing fitness (ln) (30 °C): -2.19 ± 0.25
self-splicing fitness (ln) (37 °C): -0.538 ± 0.19

CACUAGCAAUAUUACGCCGG
self-splicing fitness (ln) (30 °C): -0.975 ± 0.073
self-splicing fitness (ln) (37 °C): -0.471 ± 0.1

CGCGAGCAAUAUUACGACUC
self-splicing fitness (ln) (37 °C): -1.14 ± 0.31

UGAGAGCAAUAUUACGCUUA
self-splicing fitness (ln) (37 °C): -2.05 ± 0.3

UAUCAGCAAUAUUACGAUGA
self-splicing fitness (ln) (30 °C): -0.667 ± 0.075
self-splicing fitness (ln) (37 °C): 0.19 ± 0.099

GGGUAGCAAUAUUACGCAGG
self-splicing fitness (ln) (37 °C): -2.34 ± 0.25

CGGAAGCAAUAUUACGGUGC
self-splicing fitness (ln) (30 °C): -3.17 ± 0.19
self-splicing fitness (ln) (37 °C): -2.28 ± 0.19

UCUCAGCAAUAUUACGAAGG
self-splicing fitness (ln) (30 °C): -2.79 ± 0.19
self-splicing fitness (ln) (37 °C): -0.314 ± 0.14

GGGCAGCAAUAUUACGAAGA
self-splicing fitness (ln) (30 °C): -2.31 ± 0.21
self-splicing fitness (ln) (37 °C): -0.958 ± 0.16

AUUUAGCAAUAUUACGUUCG
self-splicing fitness (ln) (30 °C): -1.39 ± 0.11
self-splicing fitness (ln) (37 °C): -0.0499 ± 0.13

GUCCAGCAAUAUUACGUGAU
self-splicing fitness (ln) (30 °C): -0.729 ± 0.047
self-splicing fitness (ln) (37 °C): -0.345 ± 0.071

AGGGAGCAAUAUUACGCAGG
self-splicing fitness (ln) (37 °C): -0.965 ± 0.24

ACAUAGCAAUAUUACGUCCU
self-splicing fitness (ln) (30 °C): -0.372 ± 0.11
self-splicing fitness (ln) (37 °C): -0.297 ± 0.12

UCUUAGCAAUAUUACGACGC
self-splicing fitness (ln) (30 °C): -2.07 ± 0.28
self-splicing fitness (ln) (37 °C): -1.02 ± 0.23

CCUCAGCAAUAUUACGGGGG
self-splicing fitness (ln) (30 °C): -4.13 ± 0.28
self-splicing fitness (ln) (37 °C): -2.9 ± 0.23

UGGGAGCAAUAUUACGGAUG
self-splicing fitness (ln) (30 °C): -3.69 ± 0.39
self-splicing fitness (ln) (37 °C): -1.14 ± 0.26

UACCAGCAAUAUUACGCGUG
self-splicing fitness (ln) (30 °C): 0.016 ± 0.081
self-splicing fitness (ln) (37 °C): 0.0464 ± 0.099

CUGCAGCAAUAUUACGCGGC
self-splicing fitness (ln) (37 °C): -2.63 ± 0.34

UGACAGCAAUAUUACGGAAA
self-splicing fitness (ln) (30 °C): -2.03 ± 0.12
self-splicing fitness (ln) (37 °C): -1.75 ± 0.14

ACCCAGCAAUAUUACGGCGC
self-splicing fitness (ln) (30 °C): -0.619 ± 0.062
self-splicing fitness (ln) (37 °C): 0.132 ± 0.096

CUCGAGCAAUAUUACGUCUU
self-splicing fitness (ln) (30 °C): -4.4 ± 0.21
self-splicing fitness (ln) (37 °C): -3.37 ± 0.21

GCCAAGCAAUAUUACGUGGG
self-splicing fitness (ln) (30 °C): -2.97 ± 0.1
self-splicing fitness (ln) (37 °C): -3.25 ± 0.13

GUGCAGCAAUAUUACGGGAC
self-splicing fitness (ln) (30 °C): -2.09 ± 0.19
self-splicing fitness (ln) (37 °C): -2.82 ± 0.48

AACAAGCAAUAUUACGUAGU
self-splicing fitness (ln) (30 °C): -2.37 ± 0.11
self-splicing fitness (ln) (37 °C): -1.47 ± 0.12

CUCAAGCAAUAUUACGUGCG
self-splicing fitness (ln) (30 °C): -2.81 ± 0.14
self-splicing fitness (ln) (37 °C): -0.8 ± 0.12

CUACAGCAAUAUUACGGAUC
self-splicing fitness (ln) (30 °C): -4.11 ± 0.3
self-splicing fitness (ln) (37 °C): -2.51 ± 0.26

CUGAAGCAAUAUUACGUCCA
self-splicing fitness (ln) (30 °C): -1.93 ± 0.25

AUGCAGCAAUAUUACGGUUU
self-splicing fitness (ln) (30 °C): -0.723 ± 0.065
self-splicing fitness (ln) (37 °C): -0.427 ± 0.075

CUACAGCAAUAUUACGAUCU
self-splicing fitness (ln) (30 °C): -4.26 ± 0.37
self-splicing fitness (ln) (37 °C): -1.9 ± 0.45

UGGUAGCAAUAUUACGAUAA
self-splicing fitness (ln) (30 °C): -1.45 ± 0.21
self-splicing fitness (ln) (37 °C): -0.6 ± 0.24

CAAUAGCAAUAUUACGGCAA
self-splicing fitness (ln) (30 °C): -3.51 ± 0.38
self-splicing fitness (ln) (37 °C): -1.11 ± 0.22

AGGUAGCAAUAUUACGGGAU
self-splicing fitness (ln) (30 °C): -2.755 ± 0.02
self-splicing fitness (ln) (37 °C): -1.49 ± 0.034

UAAAAGCAAUAUUACGCAAC
self-splicing fitness (ln) (30 °C): -4.54 ± 0.34
self-splicing fitness (ln) (37 °C): -2.13 ± 0.21
